The target in assay [1] is T1, epithelial adhesin 6 of N. glabratus (N. glabratus (endogenous), UniProt Q6FX55 1-715).
T1 chain: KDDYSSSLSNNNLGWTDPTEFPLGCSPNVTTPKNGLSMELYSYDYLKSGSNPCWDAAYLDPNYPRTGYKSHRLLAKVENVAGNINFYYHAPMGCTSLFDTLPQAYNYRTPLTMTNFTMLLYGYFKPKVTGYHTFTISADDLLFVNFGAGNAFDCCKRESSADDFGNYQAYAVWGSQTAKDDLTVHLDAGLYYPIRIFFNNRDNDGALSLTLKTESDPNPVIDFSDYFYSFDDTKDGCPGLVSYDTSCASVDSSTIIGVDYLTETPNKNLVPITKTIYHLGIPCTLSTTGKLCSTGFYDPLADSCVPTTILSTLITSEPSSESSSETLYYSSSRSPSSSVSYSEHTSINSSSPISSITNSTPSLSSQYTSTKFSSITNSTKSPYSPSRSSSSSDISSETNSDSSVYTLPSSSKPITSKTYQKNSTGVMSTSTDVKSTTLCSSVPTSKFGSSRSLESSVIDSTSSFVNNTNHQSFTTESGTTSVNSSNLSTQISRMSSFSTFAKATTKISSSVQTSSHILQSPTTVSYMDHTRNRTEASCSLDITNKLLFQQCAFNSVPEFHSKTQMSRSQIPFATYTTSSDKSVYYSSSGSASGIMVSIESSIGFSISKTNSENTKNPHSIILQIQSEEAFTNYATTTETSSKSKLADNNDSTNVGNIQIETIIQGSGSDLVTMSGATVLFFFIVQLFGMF
As to the kind of experiment: BLI. A general note: Biolayer interferometry detects binding as a change in optical thickness at a sensor tip.

Assay [2] deals with T1, epithelial adhesin 6 of N. glabratus. In words: SPR. On the technique in general: In SPR one partner is held on a chip, and binding of the other changes the refractive index at the surface.
Assay [3] shares this target. As to the kind of experiment: BLI.

B1: cytoplasmic Nakaseomyces glabratus glyceraldehyde 3-phosphate dehydrogenase (enzyme)
chain: MVRIAINGFGRIGRLVLRVALSRSNIEVVAVNDPFITTDYAAYMFKYDSTHGRYAGEVTHDDKHIIIDGKKIAVHQERDPANLPWGSENIDIAIDSTGVFKELDTAQKHIDAGAKKVVITAPSSTAPMFVVGVNEDKYTSDLKIVSNASCTTNCLAPLAKVIDEAFGIEEGLMTTVHSLTATQKTVDGPSHKDWRGGRTASGNIIPSSTGAAKAVGKVLPQLQGKLTGMAFRVPTVDVSVVDLTVKLQKETTYDEIKKVIKQASEGKLKGVLGYTEDAVVSSDFLGDSRSSIFDASAGIQLSPKFVKLVSWYDNEYGYSTRVVDLVEHVAKN
modifications: biotin (NHS-biotin) in the microplate ligand-binding assays
The term Kd denotes a measure of binding affinity in units of concentration. As a reminder, the koff is a measure of how fast the partners let go of each other. Higher therefore signals fast dissociation. Molecule B1 showed an equilibrium dissociation constant (Kd) in assay [1] of 6.89 nM. Besides, the off-rate (koff) in assay [2] was 0.000209 s⁻¹; in assay [3], 0.00195 s⁻¹.
